Our source for the interaction score values is paper PMC10397247.

Holding throughout (test): two-hybrid library CCNG1;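 also: natural log of median RNA to DNA barcode read ratio; higher means stronger binding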
For one experiment, the target named is T1, 4H170-bA.
T1 chain: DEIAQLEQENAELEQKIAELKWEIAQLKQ

The next experiment addresses T2, 4H1831-bA.
T2 chain: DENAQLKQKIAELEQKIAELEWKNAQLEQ

For another experiment, the target named is T3, 4H2586-bA.
T3 chain: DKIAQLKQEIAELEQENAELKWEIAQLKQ

The target in another experiment is T4, 4H2627-bA.
T4 chain: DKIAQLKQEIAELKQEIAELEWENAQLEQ

Another experiment has as its target T5, 4H2673-bA.
T5 chain: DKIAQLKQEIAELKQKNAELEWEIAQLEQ

Another experiment concerns the target T6, 4H2702-bA.
T6 chain: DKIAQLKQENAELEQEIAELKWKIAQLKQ

The target in the next experiment is T7, 4H3010-bA.
T7 chain: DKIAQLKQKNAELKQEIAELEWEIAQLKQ

A further experiment addresses T8, 4H3112-bA.
T8 chain: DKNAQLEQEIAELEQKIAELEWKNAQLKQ

The next experiment has as its target T9, 4H3427-bA.
T9 chain: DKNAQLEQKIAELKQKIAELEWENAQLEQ

The next experiment concerns the target T10, 4H346-bA.
T10 chain: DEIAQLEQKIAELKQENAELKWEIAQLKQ

In the next experiment the target is T11, 4H3926-bA.
T11 chain: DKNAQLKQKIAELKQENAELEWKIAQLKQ

The target of the next experiment is T12, 4H4073-bA.
T12 chain: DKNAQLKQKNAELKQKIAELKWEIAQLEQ

The target in another experiment is T13, 4H457-bA.
T13 chain: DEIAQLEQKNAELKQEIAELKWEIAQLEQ

For a further experiment, the target named is T14, 4H575-bA.
T14 chain: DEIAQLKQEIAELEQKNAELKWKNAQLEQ

The target of the next experiment is T15, 4H683-bA.
T15 chain: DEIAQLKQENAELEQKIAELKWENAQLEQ

The next experiment concerns the target T16, 4H754-bA.
T16 chain: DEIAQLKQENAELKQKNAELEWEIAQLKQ

For a further experiment, the target named is T17, 4H780-bA.
T17 chain: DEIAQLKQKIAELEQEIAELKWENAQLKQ

The target in the next experiment is T18, 4H797-bA.
T18 chain: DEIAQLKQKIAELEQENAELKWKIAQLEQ

A further experiment deals with T19, 4H855-bA.
T19 chain: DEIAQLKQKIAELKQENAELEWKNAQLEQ

The target in the next experiment is T20, 4H918-bA.
T20 chain: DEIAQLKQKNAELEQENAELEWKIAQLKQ

For a further experiment, the target named is T21, 4H953-bA.
T21 chain: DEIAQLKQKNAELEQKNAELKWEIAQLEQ

For a further experiment, the target named is T22, 4H968-bA.
T22 chain: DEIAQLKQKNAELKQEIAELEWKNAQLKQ

The target in the next experiment is T23, 4H591-bA.
T23 chain: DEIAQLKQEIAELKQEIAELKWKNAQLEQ

In the next experiment the target is T24, 4H626-bA.
T24 chain: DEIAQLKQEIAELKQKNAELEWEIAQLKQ

For another experiment, the target named is T25, 4H906-bA.
T25 chain: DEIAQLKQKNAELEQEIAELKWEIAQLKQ

The target in another experiment is T26, P1A-bH.
T26 chain: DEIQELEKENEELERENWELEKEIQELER

The target of the next experiment is T27, 4H170-bN.
T27 chain: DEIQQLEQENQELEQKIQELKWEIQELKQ

Another experiment has as its target T28, 4H1831-bN.
T28 chain: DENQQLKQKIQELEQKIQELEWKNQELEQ

A further experiment concerns the target T29, 4H2586-bN.
T29 chain: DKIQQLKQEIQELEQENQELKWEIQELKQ

Another experiment has as its target T30, 4H2627-bN.
T30 chain: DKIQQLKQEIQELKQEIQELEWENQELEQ

The target in another experiment is T31, 4H2673-bN.
T31 chain: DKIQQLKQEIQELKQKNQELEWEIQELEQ

A further experiment deals with T32, 4H2702-bN.
T32 chain: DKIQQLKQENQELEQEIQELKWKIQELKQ

A further experiment has as its target T33, 4H3010-bN.
T33 chain: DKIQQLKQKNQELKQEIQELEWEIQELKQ

For another experiment, the target named is T34, 4H3112-bN.
T34 chain: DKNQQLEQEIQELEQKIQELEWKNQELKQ

A further experiment deals with T35, 4H3427-bN.
T35 chain: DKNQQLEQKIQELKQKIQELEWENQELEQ

The target of a further experiment is T36, 4H346-bN.
T36 chain: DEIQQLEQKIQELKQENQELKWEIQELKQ

Another experiment concerns the target T37, 4H3926-bN.
T37 chain: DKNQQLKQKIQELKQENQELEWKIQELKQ

A further experiment addresses T38, 4H4073-bN.
T38 chain: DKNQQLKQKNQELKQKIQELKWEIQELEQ

In the next experiment the target is T39, 4H457-bN.
T39 chain: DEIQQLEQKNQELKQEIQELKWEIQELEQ

Another experiment concerns the target T40, 4H575-bN.
T40 chain: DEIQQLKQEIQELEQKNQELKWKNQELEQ

The next experiment has as its target T41, 4H683-bN.
T41 chain: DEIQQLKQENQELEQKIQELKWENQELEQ

Another experiment concerns the target T42, 4H754-bN.
T42 chain: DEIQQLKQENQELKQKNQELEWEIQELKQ

A further experiment addresses T43, 4H780-bN.
T43 chain: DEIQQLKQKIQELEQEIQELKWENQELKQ

For a further experiment, the target named is T44, 4H797-bN.
T44 chain: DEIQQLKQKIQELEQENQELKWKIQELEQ

The next experiment has as its target T45, 4H855-bN.
T45 chain: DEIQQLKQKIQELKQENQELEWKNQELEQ

In another experiment the target is T46, 4H918-bN.
T46 chain: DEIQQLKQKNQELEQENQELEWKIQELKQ

The target in another experiment is T47, 4H953-bN.
T47 chain: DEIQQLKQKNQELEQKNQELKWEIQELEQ

The target in another experiment is T48, 4H968-bN.
T48 chain: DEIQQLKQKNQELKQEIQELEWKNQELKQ

For another experiment, the target named is T49, 4H2944-bH.
T49 chain: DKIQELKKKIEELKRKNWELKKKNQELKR

Another experiment addresses T50, 4H342-bH.
T50 chain: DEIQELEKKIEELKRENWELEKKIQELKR

The target in a further experiment is T51, 4H48-bH.
T51 chain: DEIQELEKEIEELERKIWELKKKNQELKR

The target in the next experiment is T52, 4H491-bH.
T52 chain: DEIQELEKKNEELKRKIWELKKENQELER

For the next experiment, the target named is T53, 4H2745-bH.
T53 chain: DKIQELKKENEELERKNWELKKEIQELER

A further experiment deals with T54, 4H344-bH.
T54 chain: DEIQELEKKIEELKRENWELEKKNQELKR

The next experiment concerns the target T55, 4H363-bH.
T55 chain: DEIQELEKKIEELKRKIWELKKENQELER

Another experiment addresses T56, 4H3907-bH.
T56 chain: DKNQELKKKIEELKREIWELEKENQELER

The target in the next experiment is T57, 4H3961-bH.
T57 chain: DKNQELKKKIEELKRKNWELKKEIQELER

The next experiment deals with T58, 4H470-bH.
T58 chain: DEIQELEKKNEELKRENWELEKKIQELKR

DEIAQLEQENAELEQKIAELKWEIAQLKQ [4H170-bA]: the interaction score in the experiment with 4H170-bA is 0.744; with 4H1831-bA, -1.05; with 4H2586-bA, -0.588; with 4H2627-bA it was 1.23; with 4H2673-bA it was 1.01; with 4H2702-bA, 2.21. Moreover, the interaction score is 2.15 with 4H3010-bA; -0.374 in the experiment with 4H3112-bA; 0.122 in the experiment with 4H3427-bA; -1.19 with 4H346-bA; 1.67 with 4H3926-bA; 1.89 in the experiment with 4H4073-bA. Moreover, the interaction score in the experiment with 4H457-bA is 1.56; with 4H575-bA, -0.482; in the experiment with 4H683-bA it was -0.581; with 4H754-bA it was -0.923; in the experiment with 4H780-bA, -0.413; with 4H797-bA it was -0.00525. Moreover, the interaction score is -0.225 with 4H855-bA, 0.927 with 4H918-bA, 0.253 in the experiment with 4H953-bA and 2.27 with 4H968-bA.
Take DEIAQLKQEIAELKQEIAELKWKNAQLEQ [4H591-bA]: the interaction score with 4H591-bA is 1.45; with 4H626-bA it was -1.82; with 4H906-bA, -1.23; with P1A-bH it was 0.0694.
Take DEIQQLEQENQELEQKIQELKWEIQELKQ [4H170-bN]: the interaction score is 0.334 with 4H170-bN; -1.26 in the experiment with 4H1831-bN; -1.86 in the experiment with 4H2586-bN; -1.42 with 4H2627-bN; -0.742 with 4H2673-bN; 1.32 in the experiment with 4H2702-bN. For the same molecule, the interaction score was 2.14 with 4H3010-bN; 0.507 with 4H3112-bN; -0.458 in the experiment with 4H3427-bN; -0.772 with 4H346-bN; 0.153 with 4H3926-bN; 1.61 in the experiment with 4H4073-bN. Moreover, the interaction score is -0.694 with 4H457-bN; 0.401 in the experiment with 4H575-bN; -0.329 with 4H683-bN; -0.104 with 4H754-bN; -0.283 with 4H780-bN; -0.668 with 4H797-bN. In addition, the interaction score was 0.202 with 4H855-bN, -0.811 in the experiment with 4H918-bN, -1.71 with 4H953-bN and 1.15 with 4H968-bN.
As for DKIQELKKKIEELKRKNWELKKKNQELKR [4H2944-bH], the interaction score is -0.179 in the experiment with 4H2944-bH, 0.551 in the experiment with 4H342-bH, 0.638 with 4H48-bH and -0.773 in the experiment with 4H491-bH.
For the molecule DKIQELKKENEELERKNWELKKEIQELER [4H2745-bH], the interaction score with 4H2745-bH is -0.337; with 4H344-bH, -0.814; with 4H363-bH it was -0.763; with 4H3907-bH, -0.566; with 4H3961-bH it was -0.688; in the experiment with 4H470-bH, 1.22.
